The values that follow come from paper PMC10641529, “Selective targeting and clustering of phosphatidylserine lipids by RSV M protein is critical for virus particle production” (The Journal of Biological Chemistry, 2023).

As usually defined, the stoichiometry N is the number of molecules, sites or subunits per partner or assembly.

Assay [1] addresses His6-GCN4-FCT (Histidine tag and GCN4 leucine zipper domain fused to the cytoplasmic tail of the RSV fusion (F) glycoprotein) (not stated | human respiratory syncytial virus). The assay can be described thus: SDS-PAGE with Western blotting; purified His-GCN4-FCT on SDS-PAGE, detected with an anti-His antibody.
Another assay deals with T1, RSV M protein (Human respiratory syncytial virus A2, UniProt P0DOE7).
T1 construct: full-length M, recombinant from E. coli Rosetta 2 (pCDF-M); His6 tag cut with 3C protease; dimer
T1 sequence (P0DOE7 whole entry): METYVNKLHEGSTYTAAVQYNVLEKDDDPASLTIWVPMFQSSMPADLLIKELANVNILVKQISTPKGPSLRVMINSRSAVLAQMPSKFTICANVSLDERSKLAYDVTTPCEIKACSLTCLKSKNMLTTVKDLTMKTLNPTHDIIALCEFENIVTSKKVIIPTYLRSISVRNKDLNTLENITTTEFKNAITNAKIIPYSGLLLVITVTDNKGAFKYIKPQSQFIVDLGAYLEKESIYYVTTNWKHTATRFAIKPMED
The assay can be described thus: LUV cosedimentation, SDS-PAGE densitometry. Format: binding. The following applies: PC:PS (70:30) LUVs; accessible PS 50 μM to 1.5 mM; 8 μM M; 150 mM NaCl, 10 mM Tris-HCl, pH 7.4, 25 °C; acyl chains of PS not told; read-out: Kd,app.

Turning to “His6-GCN4-FCT (Histidine tag and GCN4 leucine zipper domain fused to the cytoplasmic tail of the RSV fusion (F) glycoprotein)”, in assay [1], the stoichiometry N came to 3.
With phosphatidylserine [PS], the Kd on RSV M protein was in the range of 15 to 57 µM.
